Laboratory results taken from patent US20170342349A1, “STABILIZED ENZYME COMPOSITIONS” (NOVOZYMES A/S, priority 2014, published 2017).
Values joined by “and” are separate entries in the source; they are usually repeats but may differ in a detail not shown here. Identical values can stand only once.

B1: S173P + S175P + F180Y + G182A: protease variant of SEQ ID NO 3 (protein, listed as Bacillus sp.)
chain: AVPSTQTPWGIKSIYNDQSITKTTGGSGIKVAVLDTGVYTSHLDLAGSAEQCKDFTQSNPLVDGSCTDRQGHGTHVAGTVLAHGGSNGQGVYGVAPQAKLWAYKVLGDNGSGYSDDIAAAIRHVADEASRTGSKVVINMSLGSSAKDSLIASAVDYAYGKGVLIVAAAGNSGPGPNTIGYPAGLVNAVAVAALENVQQNGTYRVADFSSRGNPATAGDYIIQERDIEVSAPGASVESTWYTGGYNTISGTSMATPHVAGLAAKIWSANTSLSHSQLRTELQNRAKVYDIKGGIGAGTGDDYASGFGYPRVK
B2: S111I + S173P + S175P + F180Y: protease variant of SEQ ID NO 3 (protein, listed as Bacillus sp.)
chain: AVPSTQTPWGIKSIYNDQSITKTTGGSGIKVAVLDTGVYTSHLDLAGSAEQCKDFTQSNPLVDGSCTDRQGHGTHVAGTVLAHGGSNGQGVYGVAPQAKLWAYKVLGDNGIGYSDDIAAAIRHVADEASRTGSKVVINMSLGSSAKDSLIASAVDYAYGKGVLIVAAAGNSGPGPNTIGYPGGLVNAVAVAALENVQQNGTYRVADFSSRGNPATAGDYIIQERDIEVSAPGASVESTWYTGGYNTISGTSMATPHVAGLAAKIWSANTSLSHSQLRTELQNRAKVYDIKGGIGAGTGDDYASGFGYPRVK
B3: K146R + S173P + S175P + F180Y: protease variant of SEQ ID NO 3 (protein, listed as Bacillus sp.)
chain: AVPSTQTPWGIKSIYNDQSITKTTGGSGIKVAVLDTGVYTSHLDLAGSAEQCKDFTQSNPLVDGSCTDRQGHGTHVAGTVLAHGGSNGQGVYGVAPQAKLWAYKVLGDNGSGYSDDIAAAIRHVADEASRTGSKVVINMSLGSSARDSLIASAVDYAYGKGVLIVAAAGNSGPGPNTIGYPGGLVNAVAVAALENVQQNGTYRVADFSSRGNPATAGDYIIQERDIEVSAPGASVESTWYTGGYNTISGTSMATPHVAGLAAKIWSANTSLSHSQLRTELQNRAKVYDIKGGIGAGTGDDYASGFGYPRVK
B4: S173P + S175P + I178Y + F180Y: protease variant of SEQ ID NO 3 (protein, listed as Bacillus sp.)
chain: AVPSTQTPWGIKSIYNDQSITKTTGGSGIKVAVLDTGVYTSHLDLAGSAEQCKDFTQSNPLVDGSCTDRQGHGTHVAGTVLAHGGSNGQGVYGVAPQAKLWAYKVLGDNGSGYSDDIAAAIRHVADEASRTGSKVVINMSLGSSAKDSLIASAVDYAYGKGVLIVAAAGNSGPGPNTYGYPGGLVNAVAVAALENVQQNGTYRVADFSSRGNPATAGDYIIQERDIEVSAPGASVESTWYTGGYNTISGTSMATPHVAGLAAKIWSANTSLSHSQLRTELQNRAKVYDIKGGIGAGTGDDYASGFGYPRVK
B5: S173P + S175P + F180Y + G182S: protease variant of SEQ ID NO 3 (protein, listed as Bacillus sp.)
chain: AVPSTQTPWGIKSIYNDQSITKTTGGSGIKVAVLDTGVYTSHLDLAGSAEQCKDFTQSNPLVDGSCTDRQGHGTHVAGTVLAHGGSNGQGVYGVAPQAKLWAYKVLGDNGSGYSDDIAAAIRHVADEASRTGSKVVINMSLGSSAKDSLIASAVDYAYGKGVLIVAAAGNSGPGPNTIGYPSGLVNAVAVAALENVQQNGTYRVADFSSRGNPATAGDYIIQERDIEVSAPGASVESTWYTGGYNTISGTSMATPHVAGLAAKIWSANTSLSHSQLRTELQNRAKVYDIKGGIGAGTGDDYASGFGYPRVK
B6: S173P + S175P + F180Y + L184D: protease variant of SEQ ID NO 3 (protein, listed as Bacillus sp.)
chain: AVPSTQTPWGIKSIYNDQSITKTTGGSGIKVAVLDTGVYTSHLDLAGSAEQCKDFTQSNPLVDGSCTDRQGHGTHVAGTVLAHGGSNGQGVYGVAPQAKLWAYKVLGDNGSGYSDDIAAAIRHVADEASRTGSKVVINMSLGSSAKDSLIASAVDYAYGKGVLIVAAAGNSGPGPNTIGYPGGDVNAVAVAALENVQQNGTYRVADFSSRGNPATAGDYIIQERDIEVSAPGASVESTWYTGGYNTISGTSMATPHVAGLAAKIWSANTSLSHSQLRTELQNRAKVYDIKGGIGAGTGDDYASGFGYPRVK
B7: S173P + S175P + I178P + F180Y: protease variant of SEQ ID NO 3 (protein, listed as Bacillus sp.)
chain: AVPSTQTPWGIKSIYNDQSITKTTGGSGIKVAVLDTGVYTSHLDLAGSAEQCKDFTQSNPLVDGSCTDRQGHGTHVAGTVLAHGGSNGQGVYGVAPQAKLWAYKVLGDNGSGYSDDIAAAIRHVADEASRTGSKVVINMSLGSSAKDSLIASAVDYAYGKGVLIVAAAGNSGPGPNTPGYPGGLVNAVAVAALENVQQNGTYRVADFSSRGNPATAGDYIIQERDIEVSAPGASVESTWYTGGYNTISGTSMATPHVAGLAAKIWSANTSLSHSQLRTELQNRAKVYDIKGGIGAGTGDDYASGFGYPRVK
B8: S173P + S175P + F180Y + L184W: protease variant of SEQ ID NO 3 (protein, listed as Bacillus sp.)
chain: AVPSTQTPWGIKSIYNDQSITKTTGGSGIKVAVLDTGVYTSHLDLAGSAEQCKDFTQSNPLVDGSCTDRQGHGTHVAGTVLAHGGSNGQGVYGVAPQAKLWAYKVLGDNGSGYSDDIAAAIRHVADEASRTGSKVVINMSLGSSAKDSLIASAVDYAYGKGVLIVAAAGNSGPGPNTIGYPGGWVNAVAVAALENVQQNGTYRVADFSSRGNPATAGDYIIQERDIEVSAPGASVESTWYTGGYNTISGTSMATPHVAGLAAKIWSANTSLSHSQLRTELQNRAKVYDIKGGIGAGTGDDYASGFGYPRVK
B9: S173P + S175P + F180Y + L184Y: protease variant of SEQ ID NO 3 (protein, listed as Bacillus sp.)
chain: AVPSTQTPWGIKSIYNDQSITKTTGGSGIKVAVLDTGVYTSHLDLAGSAEQCKDFTQSNPLVDGSCTDRQGHGTHVAGTVLAHGGSNGQGVYGVAPQAKLWAYKVLGDNGSGYSDDIAAAIRHVADEASRTGSKVVINMSLGSSAKDSLIASAVDYAYGKGVLIVAAAGNSGPGPNTIGYPGGYVNAVAVAALENVQQNGTYRVADFSSRGNPATAGDYIIQERDIEVSAPGASVESTWYTGGYNTISGTSMATPHVAGLAAKIWSANTSLSHSQLRTELQNRAKVYDIKGGIGAGTGDDYASGFGYPRVK
B10: S173P + S175P + I178F + F180Y: protease variant of SEQ ID NO 3 (protein, listed as Bacillus sp.)
chain: AVPSTQTPWGIKSIYNDQSITKTTGGSGIKVAVLDTGVYTSHLDLAGSAEQCKDFTQSNPLVDGSCTDRQGHGTHVAGTVLAHGGSNGQGVYGVAPQAKLWAYKVLGDNGSGYSDDIAAAIRHVADEASRTGSKVVINMSLGSSAKDSLIASAVDYAYGKGVLIVAAAGNSGPGPNTFGYPGGLVNAVAVAALENVQQNGTYRVADFSSRGNPATAGDYIIQERDIEVSAPGASVESTWYTGGYNTISGTSMATPHVAGLAAKIWSANTSLSHSQLRTELQNRAKVYDIKGGIGAGTGDDYASGFGYPRVK

Assay: Inhibitor binding assay of SEQ ID NO 3 variants, Inhibitor 1, in Model B detergent
Format: biochemical
Conditions: in Model B relative to SEQ ID NO 3 comprising S173P + S175P + F180Y; relative Ki, IF>1.0 = lower Ki
Excerpt: Where E is the protease, I is the inhibitor and EI is the protease-inhibitor complex. […] The concentration of enzyme-inhibitor in the detergent solution is then given by:
where Etot is the total protease concentration ([Etot]=[E]+[EI]), Itot is the total inhibitor concentration ([Itot]=[I]+[EI]), and Ki is the equilibrium binding constant for the reaction. The measured slopes V are given by:
where V0 is the slope without inhibitor added. To calculate apparent binding constant Ki least square fitting of measured slopes at various inhibitor concentrations to this equation is performed with Ki and V0 as variables.
Purified protease variants are pre-diluted to approximately 0.2 mg/ml in dilution buffer. The experimental conditions are described in Table 5. 40 μl diluted protease is then mixed with 40 μl inhibitor solution Inhibitor 1: (Cbz-Gly-Ala-NHCH(CH2C6H4pOH)C(OH)(SO3Na)—H, wherein Cbz is benzyloxycarbonyl) or 40 μl Inhibitor 2: (4-FPBA) solution in the well of a 96 well microtiter plate (Nunc F 96-MTP). […] After 10 min mixing of protease and inhibitor at room temperature, 30 μl of the mixture is transferred to a microtiter plate (Nunc U96 PP 0.5 ml) with 270 μl Model B detergent (described in Table 1) in the wells resulting in inhibitor 1 concentrations of 0-30 μM and inhibitor 2 concentrations of 0-6000 μM. Protease, inhibitor and detergent is mixed for 1 hour using magnetic bars for 1 hour at room temperature to reach equilibrium. Then 20 μl is transferred to a microtiter plate (Nunc F 96-MTP). 100 μl substrate solution is added and after 5 sec mixing absorbance at 405 nm is measured every 20 sec for 5 min on a SpectraMax Plus reader. Slope from linear regression of initial increase in absorbance at 405 nm is used for calculation of apparent binding constants. Ki values were calculated according to the “Calculation of Ki” method described in “Materials and Methods”
Having the Ki for each variant, it is possible to calculate the effect of a single mutation, if data are available for at least two variants that differ only by that mutation. In this case, the relative Ki for the mutation (Improvement Factor, or IF) is calculated:
A lower Ki is desirable, as a satisfactory inhibition can be obtained at a lower inhibitor concentration, so beneficial mutations have an IF>1.0
In the case of B1, the “inhibitor 1 binding constant improvement factors (IF)” value is reported as 2.49 and 2.01. For B2, the “inhibitor 1 binding constant improvement factors (IF)” value was 1.12. With B3 the “inhibitor 1 binding constant improvement factors (IF)” value was 1.31. With B4 the “inhibitor 1 binding constant improvement factors (IF)” value was 2.15. In the case of B5, the “inhibitor 1 binding constant improvement factors (IF)” value is reported as 1.69. With B6 the “inhibitor 1 binding constant improvement factors (IF)” value was 3.28. With B7 the “inhibitor 1 binding constant improvement factors (IF)” value was 2.22. With B8 the “inhibitor 1 binding constant improvement factors (IF)” value was 2.23. With B9 the “inhibitor 1 binding constant improvement factors (IF)” value was 3.91. With B10 the “inhibitor 1 binding constant improvement factors (IF)” value was 2.34 and 1.83.
